# Where two headings read alike, the source gives them in different places. Oligonucleotides are written 5' to 3', each unit as a sugar letter and its base; * is a phosphorothioate linkage, no mark a phosphodiester; rarer units and linkages stand in square brackets, end groups in braces. Plain capitals give the bases only. [invdT] = inverted (3'-3') thymidine; d = 2'-deoxy (DNA); m = 2'-O-methyl
# What was measured:
# [1] = target: vWF (Homo sapiens, UniProt P04275, D1472H/Q852R/T1381A); experiment: cellular / biological vWF dependent assays of Example 3, not specified further; type: cell-based; details: in words; FACS, BIPA (and PFA-100) assays of Example 3
# From the text: The effectiveness of various aptamers in blocking vWF function in several biological assays is described in this Example.
# In one assay botrocetin is used. Botrocetin, a protein isolated from snake venom, is known to induce von Willebrand Factor binding to the gpib receptor on live and fixed platelets. This reaction causes agglutination of suspensions of fixed platelets via vWF multimerization. In preparations of platelet rich plasma (hereinafter “PRP”), vWF/botrocetin induction of agglutination is followed by a second phase of platelet aggregation caused by metabolic activation of the platelets. These two reactions: vWF binding to fixed platelets and vWF mediated platelet aggregation, can be used to measure the activity of aptamers of the invention.
# [2] = system: full length human vWF binding to lyophilized platelets; experiment: Full length human von Willebrand Factor platelet binding assay (FACS); type: cell-based; details: 5 nM full length human vWF, lyophilized platelets, botrocetin
# Procedure, shortened: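 Aptamer titrations (0.1–1000 nM) pre-incubated with 5 nM full-length human vWF, then added to lyophilized platelets plus botrocetin for 15 min at 37 °C in PBS/0.5% BSA. Bound vWF detected by anti-vWF then FITC secondary antibody via flow cytometry MFI; % inhibition versus no-aptamer binding fitted for IC50.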
# [3] = system: full length human vWF (SEQ ID NO 7); experiment: dot blot KD determination and extent of binding, full length human vWF; details: dot blot; for Kd: 12 point protein titration, 1xDPBS plus 0.1 mg/mL BSA, room temperature, 30 minutes, read-out: full length human vWF KD;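 as to all read-outs here: dot blot binding of aptamers to full length human vWF across a protein titration, incubated 30 minutes at room temperature in 1x DPBS with BSA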
# Method: Based on this initial screen, KDs were determined for 3 of the vWF dependent binding sequences using the dot blot assay. […] A 12 point protein titration was used in the dot blot assay (300 nM, 100 nM, 30 nM, 10 nM, 3 nM, 1 nM, 300 pM, 100 pM, 30 pM, 10 pM, 3 pM, 0 pM) in 1×DPBS plus 0.1 mg/mL BSA at room temperature for 30 minutes.
# An 8 point protein titration was used in the dot blot binding assay (100n M, 30 nM, 10 nM, 3 nM, 1 nM, 300 pM, 100 pM, 0 pM)) in 1× Dulbecco's PBS containing 0.1 BSA (final volume of 50 uL) for 30 minutes at room temperature.
# [4] = system: rabbit vWF A1 domain (SEQ ID NO 6); experiment: dot blot KD determination, rabbit vWF A1 domain; type: binding; details: dot blot, 12 point protein titration, 1xDPBS plus 0.1 mg/mL BSA, room temperature, 30 minutes
# Method: A 12 point protein titration was used in the dot blot assay (300 nM, 100 nM, 30 nM, 10 nM, 3 nM, 1 nM, 300 pM, 100 pM, 30 pM, 10 pM, 3 pM, 0 pM) in 1×DPBS plus 0.1 mg/mL BSA at room temperature for 30 minutes.
# [5] = system: rabbit vWF A1 domain (SEQ ID NO 6); experiment: 3-point dot blot screen, rabbit vWF A1 domain; type: binding; details: 3-point dot blot screen, 20 nM rabbit vWF A1 domain; ratio of fraction of aptamer bound with target protein to fraction bound without protein
# Procedure, shortened: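 Rabbit vWF A1 domain binding was screened by dot blot using three conditions: no target protein, human vWF, and rabbit vWF A1 domain at 100 nM (20 nM in the screen run twice). Radiolabeled aptamer bound to nitrocellulose was quantified, and results are expressed as the ratio of bound fraction with protein to bound fraction without protein.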
# [6] = system: full length human vWF; experiment: 3-point dot blot screen, full length human vWF; type: binding; details: 20 nM full length human vWF, ratio of fraction of aptamer bound with target protein to fraction bound without protein
# Procedure, shortened: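 Unique aptamer clones tested twice by nitrocellulose dot blot with no protein, 20 nM full-length human vWF or 20 nM rabbit vWF A1 domain. Value is fraction of aptamer bound with target divided by fraction bound without protein.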
# [7] = system: intra-arterial thrombosis of carotid arteries; experiment: cynomolgus macaque electrolytic thrombosis model; type: in vivo, cynomolgus monkeys; details: animals treated with Reopro
# Method: A study was performed to test the efficacy of ARC1779 (SEQ ID NO 320) in inhibiting intra-arterial thrombosis in a well documented non-human primate electrolytic thrombosis model. See, e.g., Rote et al., Stroke, 1994: 25, 1223-1233.
# Each animal was anesthetized prior to surgical preparation, intubated and maintained in anesthesia with isoflurane inhalant anesthetic to effect delivered through a volume-regulated respirator. An intravenous catheter was also placed in a peripheral vein for administration of lactated Ringer's solution during the procedure.
# A catheter was placed in the femoral artery of each animal for continuous monitoring of arterial blood pressure. Similarly a catheter was placed in the femoral vein for blood sample collection. Each carotid artery was instrumented with a Doppler flow probe connected to a flow meter. The flow probes were placed around the artery at a point proximal to the insertion of the intra-arterial electrode and stenosis. The stenosis was placed around each carotid artery so that the […] was reduced by approximately 50% to 60% without altering the mean […]. Blood flow in the carotid arteries was monitored and recorded continuously throughout the observation periods.
# Electrolytic injury to the intimal surface of each carotid artery was accomplished via placement of an intravascular electrode. Each electrode was connected to the positive pole of a constant current device and cathode connected to a distant subcutaneous site. Continuous current was delivered to each vessel for a period of 3 hours or for 30 minutes after complete occlusion, whichever was shorter.
# Once the electrodes were placed on the right carotid artery (“RCA”) the animal was administered the test article as indicated in Table 32 above. Approximately 15 minutes after test article administration, the electrical current was applied at 100 μA. Blood samples and CBT measurements were collected at the time points specified in Blood Sample Collection Schedule as indicated in FIG. 31. The current was terminated ˜30 minutes after the blood flow signal remained stable at zero flow (which indicates an occlusive thrombus had been formed at the site) or after 180 minutes of electrical stimulation. Approximately 195 minutes after the test article was administered, the left carotid artery (“LCA”) had electrical current administered in a similar fashion as previously described for the RCA. After termination of all surgical procedures and sample collection each animal was euthanized.
# An additional 10 cynomolgus monkeys (2.5 to 3.5 kg) were divided into treatment groups 5 to 7 and were treated according the regimen indicated in Table 33 below.
# The animal procedure for each treatment group in Table 33 was conducted as reported for the animals in Example 5B.
# [8] = read-out: Inhibition of full length hVWF binding in FACS assay, Average IC50
# vWF, sequence (P04275 764-2813 Q852R/T1381A/D1472H): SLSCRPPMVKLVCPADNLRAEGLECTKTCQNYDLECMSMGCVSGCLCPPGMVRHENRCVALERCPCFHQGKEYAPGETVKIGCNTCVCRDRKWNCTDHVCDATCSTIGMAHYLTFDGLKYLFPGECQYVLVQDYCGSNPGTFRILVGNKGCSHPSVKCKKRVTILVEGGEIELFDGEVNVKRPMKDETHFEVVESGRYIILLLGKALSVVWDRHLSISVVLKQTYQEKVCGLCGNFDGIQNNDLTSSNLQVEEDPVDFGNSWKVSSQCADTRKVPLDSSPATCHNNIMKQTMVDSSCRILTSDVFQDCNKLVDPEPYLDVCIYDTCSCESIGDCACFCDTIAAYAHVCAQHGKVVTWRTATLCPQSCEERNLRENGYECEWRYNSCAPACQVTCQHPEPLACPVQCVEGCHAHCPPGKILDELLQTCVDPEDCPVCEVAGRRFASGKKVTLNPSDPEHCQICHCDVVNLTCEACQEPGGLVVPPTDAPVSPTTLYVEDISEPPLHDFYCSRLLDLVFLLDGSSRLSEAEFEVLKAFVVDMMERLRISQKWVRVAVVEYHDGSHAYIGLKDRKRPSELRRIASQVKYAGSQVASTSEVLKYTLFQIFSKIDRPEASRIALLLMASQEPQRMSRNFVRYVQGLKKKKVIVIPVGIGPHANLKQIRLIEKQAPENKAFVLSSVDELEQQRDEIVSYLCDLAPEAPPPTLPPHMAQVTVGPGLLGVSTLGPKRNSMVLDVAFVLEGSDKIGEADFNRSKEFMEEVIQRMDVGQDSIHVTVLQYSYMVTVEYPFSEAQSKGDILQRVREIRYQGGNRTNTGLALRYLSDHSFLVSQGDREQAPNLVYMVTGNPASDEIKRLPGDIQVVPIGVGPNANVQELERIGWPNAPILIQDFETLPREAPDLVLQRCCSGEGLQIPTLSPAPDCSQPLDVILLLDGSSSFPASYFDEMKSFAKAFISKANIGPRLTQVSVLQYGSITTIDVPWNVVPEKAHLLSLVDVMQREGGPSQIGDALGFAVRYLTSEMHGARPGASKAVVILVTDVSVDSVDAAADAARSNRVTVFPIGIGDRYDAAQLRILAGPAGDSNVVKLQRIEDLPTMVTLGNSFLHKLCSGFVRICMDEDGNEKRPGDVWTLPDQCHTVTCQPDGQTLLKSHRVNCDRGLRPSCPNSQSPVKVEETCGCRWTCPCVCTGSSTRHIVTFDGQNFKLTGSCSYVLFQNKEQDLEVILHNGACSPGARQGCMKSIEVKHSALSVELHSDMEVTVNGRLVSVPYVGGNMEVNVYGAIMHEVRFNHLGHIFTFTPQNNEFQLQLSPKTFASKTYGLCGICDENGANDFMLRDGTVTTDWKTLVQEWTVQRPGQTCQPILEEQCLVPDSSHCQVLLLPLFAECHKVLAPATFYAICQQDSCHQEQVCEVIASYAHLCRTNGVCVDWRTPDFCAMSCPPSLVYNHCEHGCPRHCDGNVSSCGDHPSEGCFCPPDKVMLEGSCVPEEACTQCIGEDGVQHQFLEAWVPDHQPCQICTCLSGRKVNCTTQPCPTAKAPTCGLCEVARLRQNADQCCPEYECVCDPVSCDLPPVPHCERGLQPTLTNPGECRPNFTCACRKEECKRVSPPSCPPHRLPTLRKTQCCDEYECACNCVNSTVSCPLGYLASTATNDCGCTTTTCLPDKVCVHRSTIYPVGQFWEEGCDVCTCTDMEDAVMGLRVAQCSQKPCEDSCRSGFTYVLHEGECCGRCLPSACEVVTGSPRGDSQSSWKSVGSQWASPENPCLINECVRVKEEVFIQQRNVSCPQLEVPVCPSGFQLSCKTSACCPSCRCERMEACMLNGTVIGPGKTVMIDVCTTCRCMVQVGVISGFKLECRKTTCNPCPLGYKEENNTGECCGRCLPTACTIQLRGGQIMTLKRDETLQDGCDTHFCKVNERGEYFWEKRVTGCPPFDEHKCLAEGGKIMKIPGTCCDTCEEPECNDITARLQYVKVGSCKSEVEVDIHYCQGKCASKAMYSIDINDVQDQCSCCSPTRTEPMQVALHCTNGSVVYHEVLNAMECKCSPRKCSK
# rabbit vWF A1 domain (SEQ ID NO 6), sequence (as listed by the source): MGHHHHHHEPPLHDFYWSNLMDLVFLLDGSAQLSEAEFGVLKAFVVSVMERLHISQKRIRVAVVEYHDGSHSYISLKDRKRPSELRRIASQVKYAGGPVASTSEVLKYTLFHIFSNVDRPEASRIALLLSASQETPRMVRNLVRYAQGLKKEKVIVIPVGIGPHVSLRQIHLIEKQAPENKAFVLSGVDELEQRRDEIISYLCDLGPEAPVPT
Molecule,activity in the cellular / biological assays [1],"IC50 [2, 8] [pM]",binding to human vWF ([3]; in words),"IC50 ([2]; units in the cell: lower bound pM, upper bound nM, read-out: Inhibition of full length hVWF binding in FACS assay, IC50 range) [pM]",Kd [4] [nM],Screen Rabbit/No Protein [5],Screen- Human/No Protein [6],Kd [3] [nM],arteries that developed occlusive thrombi [7] [%]
"GGACGATCTGACTAGCTCCAGTGTTTTATCTAATAACCGTCC (DNA, backbone not given here) [SEQ ID NO 208, minimized DNA aptamer]",demonstrated activity,4300,–,–,–,–,–,–,–
mGmCmGmUdGdCdAmGmUmGmCmCmUmUmCmGmGmCdCmGmTmGdCdGdGTmGmCdCmUdCdCmGmUmCmAmCmGmC-3T (mGmCmGmUdGdCdAmGmUmGmCmCmUmUmCmGmGmCdCmGmTmGdCdGdGdTmGmCdCmUdCdCmGmUmCmAmCmGmC[invdT]) [ARC1525],did not display activity,–,no binding at all,–,–,–,–,–,–
"AMX238.E9: DNA SELEX 2 aptamer clone (nucleic acid, DNA, backbone not given here, DNA SELEX 2 aptamer clone) DNA: CTACCTACGATCTGACTAGCGTGCAGTGCCCATCTTAGGCCGTGCGGTGCCTCCGTCACGCTTACTCTCATGTAGTTCC",slightly more potent,3400,–,772 to 6500,5.3,3.36,3.44,0.39,–
"AMX238.H5: DNA SELEX 2 aptamer clone (nucleic acid, DNA, backbone not given here, DNA SELEX 2 aptamer clone) DNA: CTACCTACGATCTGACTAGCGTGCAGTGCCTATTCTAGGCCGTGCGGTGCCTCCGTCACGCTTACTCTCATGTAGTTCC",slightly more potent,658,–,–,6,3.46,3.75,0.33,–
"Reopro: IIbIIIa antagonist (antibody, chains of the INN, looked up, V domains shown, Fab, IIbIIIa antagonist) VH: EVQLQQSGTVLARPGASVKMSCEASGYTFTNYWMHWVKQRPGQGLEWIGAIYPGNSDTSYIQKFKGKAKLTAVTSTTSVYMELSSLTNEDSAVYYCTLYDGYYVFAYWGQGTLVTVSA VL: EIVLTQSPVTLSVTPGDSVSLSCRASRDISNNLHWFQQTSHESPRLLIKYASQSMSGIPSRFSGSGSGTDFTLSINSVETEDFGMYFCQQTNSWPYTFGGGTKLEIK",–,–,–,–,–,–,–,–,20

# From patent US7998940B2, “Aptamers to von Willebrand factor and their use as thrombotic disease therapeutics” (Archemix Corp., priority 2004, dated 2011)
